{"source": "patent US20250059280A1", "about": "(AbbVie / Abbott, published 2025)", "binders": {"B1": {"name": "cemiplimab (Catalog No. A2022, Selleckchem) (antibody, V domains shown)", "VH": "EVQLLESGGVLVQPGGSLRLSCAASGFTFSNFGMTWVRQAPGKGLEWVSGISGGGRDTYFADSVKGRFTISRDNSKNTLYLQMNSLKGEDTAVYYCVKWGNIYFDYWGQGTLVTVSS", "VL": "DIQMTQSPSSLSASVGDSITITCRASLSINTFLNWYQQKPGKAPNLLIYAASSLHGGVPSRFSGSGSGTDFTLTIRTLQPEDFATYYCQQSSNTPFTFGPGTVVDFR"}}, "key": {"[1]": {"biological_target": "T1, human programmed death receptor 1 (PD-1) (human, UniProt Q15116 25-288)", "T1 construct": "whole, on cells; Endogenous PD-1 on T cells of donors or study subjects; also called PD-1 receptor", "T1 sequence (Q15116 25-288)": "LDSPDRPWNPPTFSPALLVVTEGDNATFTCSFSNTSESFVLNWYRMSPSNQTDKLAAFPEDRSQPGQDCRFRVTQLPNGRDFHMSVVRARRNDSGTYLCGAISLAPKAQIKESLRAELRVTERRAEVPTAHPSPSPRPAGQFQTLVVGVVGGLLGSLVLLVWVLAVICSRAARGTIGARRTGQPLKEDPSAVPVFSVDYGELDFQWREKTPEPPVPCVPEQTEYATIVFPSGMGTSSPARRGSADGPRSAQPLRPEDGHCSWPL", "test": "ratio of in vitro PD-1 receptor saturation EC50 values on CD8+ T cells, reference mAb2"}, "[2]": {"biological_target": "T1, human programmed death receptor 1 (PD-1)", "test": "in vitro PD-1 receptor saturation on CD8+ T cells, flow cytometry, whole blood, Emax model fit"}}, "data": [{"binder": "B1", "values": [{"measurement": "Scaling Factor (ratio of EC50 of PD-1 saturation to the EC50 of mAb2)", "setting": "[1]", "value": 2.67}, {"measurement": "EC95", "setting": "[2]", "value": 0.366, "unit": "µg/mL"}]}]}
